Results reported in patent publication US20100028952A1, “FERMENTATION AND PURIFICATION OF ACTINOMADURA CHROMOPROTEIN AND RELATED SPECIES” (WYETH, priority 2006, published 2010).

Assays:
[1] = system: Histone H1; assay: Digestion of histone H1, SDS-PAGE; type: biochemical; details: for digestion of histone H1: 50 mM Tris-Cl, pH 7.5 overnight at 37° C.
Experimental: Histone H1 was incubated with various concentrations of the chromoprotein in 50 mM Tris-Cl, pH 7.5 overnight at 37° C. (FIG. 29) Digestions of histone were assessed by SDS-polyacrylamide gel electrophoresis (SDS-PAGE), followed by staining of the gel with GelCode Blue (Pierce Biotechnology, Inc, Rockford, Ill.).

[2] = system: histone H1 in HeLa cells; assay: Digestion of histone H1 in HeLa cells, immunoblot; type: cell-based; details: HeLa cells incubated overnight at 37° C.; anti-histone H1 immunoblot
Experimental: To study whether the digestion of histones by the chromoprotein occurs in intact cells, HeLa cells were incubated with compounds overnight at 37° C. Cell lysates were analysed by SDS-PAGE and protein immunoblotting using anti-histone H1 antibodies (Santa Cruz Biotechnologies). […] This activity can contribute to antitumor effects by digesting histones in chromatin, making the DNA more accessible for cleavage. This appears to be a unique activity of the chromoprotein enediynes.

[3] = biological target: T1, Human PGP (MDR1) (Homo sapiens, UniProt P08183); assay: Transport by P-GP (MDR-1); type: cell-based; details: result in words
T1 construct: cells expressing clinically relevant levels of MDR1 (KB-8-5 cells) remain sensitive to the complex; endogenous in cells; host or cells: KB (P-GP -), KB-8-5 (+), KB-V-1 (+++)
Text: Human PGP (MDR1) is an ATP-dependent efflux pump which is capable of transporting many drugs across cell membranes. High level expression of this protein has been linked to multiple drug resistance of tumors. […] The protein component of the chromoprotein probably protects the chromophore from drug efflux mediated by MDR1, and may be responsible for the beneficial antitumor effects in colon cell lines which often express MDR1.

[4] = system: p21+/+ cells; assay: In vitro anti-tumor activity, isogenic pair of cell lines; type: cell-based; details: p21+/+ isogenic cell line; Mean + SD, n = 3
Text: (§1) The p53/p21 checkpoint monitors the integrity of the genome and blocks cell cycle progression in the event of DNA damage. Disruption of the checkpoint by deletion of the p21 gene results in failure to arrest in response to DNA damage ultimately leading to cell death through apoptosis. Since loss of this checkpoint is a hallmark of cancer cells, an isogenic pair of cell lines, wherein one pair of the cell line (p21+/+) has an intact p21 gene and one member (p21−/−) has a deletion in the p21 gene, can be used to screen for potential anti-tumor compounds by identifying molecules that preferentially induce apoptosis in p21-deficient cells.
(§2) The Actinomadura sp. 21G792 chromoprotein was added to an isogenic pair of cell lines (p21+/+ and p21−/−).

[5] = system: p21−/− cells; assay: as above; type: cell-based; details: p21−/− isogenic cell line; Mean + SD, n = 3
Text: as §1, §2

[6] = system: LoVo; assay: Potency against human tumor cell lines; type: cell-based; details: Colon
[7] = system: SW620; assay: Potency against human tumor cell lines; type: cell-based; details: SW620, Colon
[8] = system: BT474; assay: Potency against human tumor cell lines; type: cell-based; details: BT474, Breast
[9] = system: MCF-7; assay: Potency against human tumor cell lines; type: cell-based; details: MCF-7, Breast
[10] = system: MDA-MB-361; assay: Potency against human tumor cell lines; type: cell-based; details: MDA-MB-361, Breast
[11] = system: HN5; assay: Potency against human tumor cell lines; type: cell-based; details: HN5, Head & Neck
[12] = system: Supercoiled φX174 DNA; assay: DNA cleavage assay, gel electrophoresis; type: biochemical
Experimental: Supercoiled φX174 DNA was incubated with various concentrations of the 21G792 chromoprotein and analyzed by gel electrophoresis. […] Nicked refers to single strand breaks in the DNA and linear refers to double strand breaks.

[13] = system: histones H1, H2A, H2B, H3, and H4; assay: Specificity of protein digestion by the chromoprotein; type: biochemical; details: myelin basic protein, bovine serum albumin
[14] = system: p53/p21 checkpoint in HCT116 (p21+/+ and p21−/−) cells; assay: Induction of the G1/S checkpoint, protein immunoblot; type: cell-based, human
Text: HCT116 (p21+/+ and p21−/−) cells were exposed to the chromoprotein at various concentrations. […] Activation of the DNA damage checkpoint by the Actinomadura sp. […] 21G792 chromoprotein as shown by the cleavage of poly ADP ribose […] (PARP) (FIG. 23B). This is consistent with the lower IC50 value in the p21−/− cells.

[15] = Toxicity of the chromoprotein in nude mice; type: in vivo; details: except for bone marrow suppression
Experimental: 21G792 chromoprotein is well-tolerated in nude mice. Specifically, saline control vehicle or the chromoprotein in various doses was administered intravenously to six nude mice on days 1, 5, and 9.

[16] = system: HCT116 colon carcinoma cells; assay: Uptake of FITC-tagged chromoprotein and apoprotein, fluorescent microscopy / flow cytometry; type: cell-based; details: for competition of label by unlabeled reagent: 10-fold excess of unlabeled reagent
Experimental: To determine the mechanism by which the chromoprotein enters cells and exerts its biological activity, the chromoprotein was labeled with a fluorescent tag (FITC) using EZ-Label fluorescent labeling kit (Pierce Biotechnology), according to the manufacturer's recommendation. […] Uptake of labeled material by HCT116 colon carcinoma cells was studied by fluorescent microscopy. Optimum incubation time with cells was 3-6 hours. […] Even though nuclear accumulation is low, the amount is most likely sufficient for biological activity given the potency of the complex.
To determine whether an intact complex of chromophore and apoprotein is required for cellular and nuclear entry, the chromoprotein and apoprotein were labeled with FITC. Uptake of labeled material was studied by fluorescent microscopy. Uptake was similar for both apoprotein and chromoprotein.
To determine whether the entry of chromoprotein into cells is mediated by a saturable (e.g. cell surface receptor-dependent) process, HCT116 cells were incubated with FITC-labeled chromoprotein (FIG. 37, right panel) or apoprotein (FIG. 37, left panel) in the absence or presence of 10-fold excess of unlabeled reagent (unlabelled chromoprotein or apoprotein, respectively). Cells were analysed by fluorescent microscopy (left) or flow cytometry (right). […] Furthermore, a single homogeneous peak observed in flow cytometry histograms indicated uniform uptake of labeled reagent by all cells. Numbers in the histograms are mean channel numbers (FITC fluorescence).
Other means by which a protein complex can enter cells is pinocytosis, where caveolae in the surface of the cell pinch off to form pinosomes that are free within the cytoplasm of the cell. Since pinocytosis is an energy-dependent process that requires a functional tubulin cytoskeletal network, we examined the effect of sodium azide, an energy uncoupling agent and nocodazole, an agent which disrupts the tubulin cytoskeleton on cellular uptake. HCT116 cells were treated with FITC-labeled apoprotein in the absence or presence of sodium azideor nocodazole. […] Since the data appears to rule out a receptor-mediated process, pinocytosis is most likely involved.

[17] = system: E. coli BR513-80 SOS response; assay: Biochemical induction assay (BIA); type: cell-based; details: purified, approximately 90% pure
Text: The biochemical induction assay identifies DNA damaging agents which induce the SOS response in E. coli BR513-80. BR513-80 contains a translational fusion of the λ PL promoter and the lacZ gene. The λ PL promoter, activated as part of the SOS response after exposure to DNA damaging agents, drives the synthesis of β-galactosidase. β-galactosidase activity is detected by the cleavage of the 6-bromo-2-naphthyl-β-D-galactopyranoside (BNG) which reacts with Fast Blue RR salt to produce a red/purple color. […]
A BR513-80 overnight culture is diluted 1:20 in LBE broth or equivalent, and the absorbance of the diluted culture is measured at 600 nm. The absorbance of the undiluted culture is calculated, and 5.7 is divided by this value to obtain the volume (in mL) of culture to use as an inoculum per 40 mL soft agar. […] The calculated culture volume is swirled in soft agar, poured evenly over the base layer (40 ml per Nunc BioAssay plate, or 20 mL per 150 mm petri dish), and allowed to solidify for at least 10-15 minutes. […]
A dye/substrate overlay is prepared by dissolving 87 mg Fast Blue RR salt and 13 mg BNG in 2 mL DMSO and mixing with 40 mL melted 1% soft agar. […] The induction response is scored after 15-20 minutes at room temperature or after 10 min. at about 37° C. […]

[18] = system: human tumor cell line panel; assay: Human tumor cell line panel (whole panel); type: cell-based; details: result in words

T1 sequence (P08183 whole entry): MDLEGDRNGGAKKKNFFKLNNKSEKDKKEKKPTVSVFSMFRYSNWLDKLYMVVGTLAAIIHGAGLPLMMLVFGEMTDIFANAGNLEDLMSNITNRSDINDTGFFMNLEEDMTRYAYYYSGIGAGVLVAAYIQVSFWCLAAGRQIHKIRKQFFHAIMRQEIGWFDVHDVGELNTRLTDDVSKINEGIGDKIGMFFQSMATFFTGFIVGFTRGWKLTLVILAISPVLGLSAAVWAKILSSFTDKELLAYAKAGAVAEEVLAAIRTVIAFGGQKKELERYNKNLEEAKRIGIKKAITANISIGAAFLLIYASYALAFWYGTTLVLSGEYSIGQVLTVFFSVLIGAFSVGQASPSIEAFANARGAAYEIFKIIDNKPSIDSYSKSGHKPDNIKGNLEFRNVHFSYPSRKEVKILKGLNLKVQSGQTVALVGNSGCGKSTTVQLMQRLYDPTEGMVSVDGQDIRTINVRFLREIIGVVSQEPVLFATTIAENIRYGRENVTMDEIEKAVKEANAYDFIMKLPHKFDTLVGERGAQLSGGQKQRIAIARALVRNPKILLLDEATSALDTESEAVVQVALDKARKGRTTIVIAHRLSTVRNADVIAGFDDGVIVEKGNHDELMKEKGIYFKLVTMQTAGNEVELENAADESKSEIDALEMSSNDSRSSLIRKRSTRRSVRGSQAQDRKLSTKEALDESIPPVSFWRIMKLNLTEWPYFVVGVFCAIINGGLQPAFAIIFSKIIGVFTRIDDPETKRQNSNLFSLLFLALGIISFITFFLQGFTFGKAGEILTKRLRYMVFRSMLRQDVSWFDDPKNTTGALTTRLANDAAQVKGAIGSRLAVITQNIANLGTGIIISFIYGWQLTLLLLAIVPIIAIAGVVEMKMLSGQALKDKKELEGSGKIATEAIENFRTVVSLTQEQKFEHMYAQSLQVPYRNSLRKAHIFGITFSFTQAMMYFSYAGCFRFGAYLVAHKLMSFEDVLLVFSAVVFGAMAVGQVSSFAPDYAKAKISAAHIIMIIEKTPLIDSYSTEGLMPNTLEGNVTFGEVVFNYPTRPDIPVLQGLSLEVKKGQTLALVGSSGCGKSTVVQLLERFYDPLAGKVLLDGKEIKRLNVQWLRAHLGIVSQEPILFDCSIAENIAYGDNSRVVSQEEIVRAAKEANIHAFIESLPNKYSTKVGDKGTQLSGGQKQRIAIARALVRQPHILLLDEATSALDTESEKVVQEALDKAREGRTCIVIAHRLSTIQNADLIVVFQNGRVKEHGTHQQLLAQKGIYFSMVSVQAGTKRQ

**Q.** For calicheamicin [reference compound], which “digestion of histone H1” value [1] is on record?
**A.** The value was “did not cleave histone H1”.

**Q.** What about the “histone H1 in cells” value [2] of the same molecule?
**A.** The value was “No effect”.

**Q.** What about the MDR1 substrate [3] of the same molecule?
**A.** The MDR1 substrate was “good substrate for MDR1”.

**Q.** Which “histone H1 in cells” value [2] does the source give for bleomycin here?
**A.** The value was “No effect”.

B1: Actinomadura sp. 21G792 chromoprotein: non-covalent complex of an apoprotein and a chromophore comprising a nine-membered enediyne, produced by Actinomadura sp. 21G792 (NRRL 30778) (protein)
chain: DTVTVNYDCVGYPSDIAVTIDAPATAGVGDTATFEVSSVVTTGAPQDLPAGEVVTDMAIVVGGAQSGTITASGLTNEATPAGQPVNMVGGEAQITFTSAGSVTFTPSTTTQVDNGAQCTVVGEAPVGATTVVS
**Q.** With B1 as the molecule, how does the IC50 [4] read?
**A.** Its IC50 is 90 + 32 μg/ml.

**Q.** And the IC50 [5]?
**A.** The IC50 was 7 + 2 μg/ml.

**Q.** What about the IC50 [6] of the same molecule?
**A.** The IC50 was 2 µg/mL.

**Q.** And the IC50 [7]?
**A.** Its IC50 is 2 µg/mL.

**Q.** What about the IC50 [8] of the same molecule?
**A.** The IC50 was 47 µg/mL.

**Q.** And the IC50 [9]?
**A.** The IC50 was 2 µg/mL.

**Q.** What about the IC50 [10] of the same molecule?
**A.** Its IC50 is 5 µg/mL.

**Q.** What about the IC50 [11] of the same molecule?
**A.** Its IC50 is 4 µg/mL.

**Q.** What about the “requirement of a reducing agent for DNA cleavage” value ([12]; dithiothreitol, DTT) of the same molecule?
**A.** Its value is “did not require a reducing agent”.

**Q.** And the DNA cleavage ([12]; various concentrations, reaction progressed over 24 hours)?
**A.** Its DNA cleavage is “induced single strand breaks and double strand breaks”.

**Q.** And the “effect of free radical scavengers and protease inhibitors on digestion of histones” value ([1]; 30 mM glutathione or N-acetyl cysteine, protease inhibitors)?
**A.** Its value is “inhibited by the addition of free radical scavengers, 30 mM glutathione or N-acetyl cysteine (not shown), but not by protease inhibitors”.

**Q.** What about the “digestion of histone H1” value [1] of the same molecule?
**A.** The value was “digestion of Histone H1”.

**Q.** What about the “effect of DNA on digestion of histone H1” value ([1]; addition of DNA) of the same molecule?
**A.** The value was “inhibited by addition of DNA”.

**Q.** And the “cleavage of other proteins” value [13]?
**A.** The value was “cleaves other basic proteins such as myelin basic protein, but not neutral/acidic proteins such as bovine serum albumin”.

**Q.** And the “histone H1 in cells” value [2]?
**A.** The value was “reduced histone H1 in cells”.

**Q.** And the “induction of the p21 protein” value ([14]; HCT116 p21+/+ and p21−/−)?
**A.** The value was “Induction of the p21 protein was seen in the p21+/+ cells only”.

**Q.** And the “induction of apoptosis (PARP cleavage)” value ([14]; p21−/− compared with p21+/+ cells)?
**A.** The value was “induction of apoptosis was preferentially observed in p21−/− cells compared with p21+/+ cells”.

**Q.** What about the “tolerability in nude mice” value [15] of the same molecule?
**A.** Its value is “well-tolerated”.

**Q.** And the MDR1 substrate [3]?
**A.** Its MDR1 substrate is “poor MDR1 substrate”.

**Q.** And the “competition of label by unlabeled reagent” value [16]?
**A.** Its value is “No competition of label was observed”.

**Q.** And the “biological activity upon FITC labeling” value ([16]; FITC labeled)?
**A.** The value was “No loss of biological activity”.

**Q.** And the “uptake of labeled material, apoprotein versus chromoprotein” value ([16]; FITC labeled)?
**A.** The value was “similar”.

**Q.** And the “cellular localisation of label” value ([16]; FITC labeled, fluorescent microscopy)?
**A.** The value was “Most of the label appeared in the cytoplasm, although weak staining was also observed in the nucleus”.

**Q.** What about the BIA activity [17] of the same molecule?
**A.** Its BIA activity is “BIA active”.

B2: apoprotein: 21G792 apoprotein (SEQ ID NO:150), protein component of the chromoprotein without chromophore (protein)
chain: B1 chain
modifications: Actinomadura sp. 21G792
**Q.** For B2, which “in vitro anti-tumor activity” value [18] is on record?
**A.** Its value is “inactive”.

**Q.** What about the “digestion of histone H1” value [1] of the same molecule?
**A.** The value was “no activity”.

**Q.** And the “competition of label by unlabeled reagent” value [16]?
**A.** Its value is “No competition of label was observed”.

**Q.** And the “uptake of labeled material, apoprotein versus chromoprotein” value ([16]; FITC labeled)?
**A.** Its value is “similar”.

**Q.** And the “effect of sodium azide or nocodazole on uptake of label” value ([16]; FITC-labeled, nocodazole 100 nM)?
**A.** Its value is “Both treatments inhibited uptake of label”.
